Substrate: Nc1ncnc2c1ncn2[C@@H]1O[C@H](COP(=O)(O)O)[C@@H](OP(=O)(O)O)[C@H]1O
Test: purified protein
Type: biochemical, Rattus norvegicus
Details: 5 mM p-nitrophenyl sulfate, pH 7.0, 37 °C

B1: AST-IV (Rattus norvegicus) (protein)
chain: MEFSRPPLVHVKGIPLIKYFAETIGPLQNFTAWPDDLLISTYPKSGTTWMSEILDMIYQGGKLEKCGRAPIYARVPFLEFKCPGVPSGLETLEETPAPRLLKTHLPLSLLPQSLLDQKVKVIYIARNAKDVVVSYYNFYNMAKLHPDPGTWDSFLENFMDGEVSYGSWYQHVKEWWELRHTHPVLYLFYEDIKENPKREIKKILEFLGRSLPEETVDSIVHHTSFKKMKENCMTNYTTIPTEIMDHNVSPFMRKGTTGDWKNTFTVAQNERFDAHYAKTMTDCDFKFRCEL
Km: 25.3 µM

From paper PMC3901155
